{"source": "patent US6613506B1", "about": "“Compositions and methods for inhibiting human immunodeficiency virus infection by down-regulating human cellular genes” (Subsidiary No. 3, Inc., priority 2000, dated 2003)", "molecules": {"B1": {"name": "CF-280: GSE, SEQ ID NO:20; portion of an unknown human cellular gene (nucleic acid, listed as Homo sapiens)", "DNA": "GTGCCGTATGAATATACAAAATAATGGCATCAGGGATCCCTGTGCTCATTCACATAGCTAGGGACAACAGGATTTCATCTCCAGGAAACTCAGTAGTATACTTTTGTGACTTCTCTCTTTAAGCACCAAAGCATACTTTCAGGGAAAAACAAAAAAGAGATTAAAAATGTAAAGAATTCTTTCATGCTGCTTGGAGAGGTGAGGGAAGGTAGCCCACTGAAAGTGACAGAGAA"}, "B2": {"name": "CF-317: GSE, SEQ ID NO:17, antisense; human phosphatidylinositol 3-kinase gene (nucleic acid, listed as Homo sapiens)", "antisense": "CCAAGCTTCCTATCTTAAGCTGGGCGTTGATATCCAGGTCACAACTATAGATGTAGTGAAACTTCTCTGCTTCCCCCATCGCACCGTCTGCAAAGGTACCACC"}, "B3": {"name": "CF-311: GSE, SEQ ID NO:12, antisense; human protein tyrosine phosphatase gene (nucleic acid, listed as Homo sapiens)", "antisense": "GGGGGCTCTGTTTGGTGGTCTCTCTAGCTGCACTGGTCTATCAAGCTGTTGGCTGGTCTCTCTCTCTGGCTGGGGATC"}, "B4": {"name": "CF-313: GSE, SEQ ID NO:13, sense; human protein tyrosine phosphatase gene (nucleic acid, listed as Homo sapiens)", "sense": "CATTTTGTTACATAAGGATGACTTTTTTATACAATGGAATAAATTATGGCATTTCTATTGAAATTTCAACGCTTTTGTTTCTTTGGCAACCACAC"}, "B5": {"name": "CF-004: GSE, SEQ ID NO:7, sense; human 2-oxoglutarate dehydrogenase gene (nucleic acid, listed as Homo sapiens)", "sense": "GCGCAAAGCACGCGACATGGTGGGGCAGGTGGCCATCACAAGGATTGAGCAGCTGTCGCCATTCCCCTTTGACCTCCTGCTGAAGGAGGTGCAGAAGTACCCCAA"}, "B6": {"name": "CF-266: GSE, SEQ ID NO:15, antisense; human eIF4B gene (nucleic acid, listed as Homo sapiens)", "antisense": "GCCGTTCTTCTACTTCTCTTTCTCAAGCAGCAGTGTCAACAGGCTTTGCCCCTCCAAAGATAGAAGCAGCTCGAGTGGACTGGGAGGTACTAGCAGA"}, "B7": {"name": "CF-302: GSE, SEQ ID NO:16, antisense; human CD44 gene (nucleic acid, listed as Homo sapiens)", "antisense": "GATCCCTGGGCGCGGGGCAGGGGCCGGCGGAGGACGGGACGAGGATGGCGGACCGAACCTGGCAGAGGCTGGG"}, "B8": {"name": "CF-273: GSE, SEQ ID NO:11, sense; eukaryotic translation initiation factor 3 gene (nucleic acid, listed as Homo sapiens)", "sense": "GCTCGTCAGTGTCCACCCCTCCTCGCAACTCCAGGCGCTCCTTTTTCTGCTCCATATAGAGCTCCTGGGCCATTTTCCGGTACTTCCGGAAATCTTCCATCATGGTGCGCCTTC"}, "B9": {"name": "CF-545: GSE, SEQ ID NO:49, antisense; U-snRNP associated cyclophilin gene (nucleic acid, listed as Homo sapiens)", "antisense": "CTTCTTGGTGGTGTTCTTGAGTAAGATAATCTGGACTGGCCCCCGTCTTTGCTTCCCTGCCTGCTGCTGCCCCATTTGATCAAGAGACCATGGAAGTGTCAGAGATTCAGAATCCAAGATTGTCTTTAAGTTTTCAACTGTAAATAAAGTTTTTTTGTATGCGTAAAAAAAGCTCGTGCCT"}, "B10": {"name": "CF-286: GSE, SEQ ID NO:18, sense; human elongation factor-1α gene (nucleic acid, listed as Homo sapiens)", "sense": "CAGTTGGGGTGGGTGTCATCAAAGCAGTGGACAAGAAGGCTGCTGGAGCTGGCAAGGTCACCAAGTCTGCCCAGAAAGCTCAGAAGGCTAAATGAATATTATCCCTAATACCTGCCACCCCACTCTTAATCAGTGGTGGAAGAAC"}, "B11": {"name": "CF-531: GSE, SEQ ID NO:47, antisense; cell adhesion molecule L1 gene (nucleic acid, listed as Homo sapiens)", "antisense": "CTGGGTCCCCAAGGAGGGCCAGTGCAACTTCAGGTTCCATATCTTGTTCAAAGCCTTGGGAGAAGAGAAGGGTGGGGCTTCCCTTTCGC", "modifications": "chemistry not fully specified", "notes": "cell adhesion molecule L1 gene"}, "B12": {"name": "CF-529: GSE, SEQ ID NO:45, antisense; importin beta subunit gene (nucleic acid, listed as Homo sapiens)", "antisense": "GGAGTGTGCACGGATGCTGAATGTTTGGGAATGAGAGGATGAGTGAGTGAGGCTTGAAAACACACCACATTGAAAATCCTGCCACAGCAGCAGCCGCAGCCGCCAACAGCAGCGCTGTTAGTGAGCTAAGTAAGC"}, "B13": {"name": "CF-210: GSE, SEQ ID NO:14, sense; herpesvirus-associated ubiquitin-specific protease gene (nucleic acid, listed as Homo sapiens)", "sense": "GCATTACAAAGAGTGTTCTATGAATTACAGCATAGTGATAAACCTGTAGGAACAAAAAAGTTAACAAAGTCATTTGGGTGGGAAACTTTAGATAGCTTCATGCAACATGATGTT"}, "B14": {"name": "CF-204: GSE, SEQ ID NO:9, antisense; human calnexin gene (nucleic acid, listed as Homo sapiens)", "antisense": "GGTTGTCAATCACAGGTCGCCAGGAGACACCACATCCAGGAGCTGACTCACATCTAGGGTTGGCAATCTGAGGAGCCTCCCATTCTCCATCCATGTCTTCATCCCAA"}}, "data": [{"tested_on": "HIV-1IIIB", "experiment": "Selection of GSEs from HeLa cell library using productive infection of CEM-ss cells", "assay_type": "cell-based", "method": "Additionally, a normalized RFE library made from HeLa cells was transferred into CEM-ss cells and the neo resistant population was infected with TCID50 of 3000/10^6 cells of HIV-1IIIB. This RFE library was represented by 50×10^6 independent recombinant clones. Four and seven days after infection, a purified anti-CD4 monoclonal antibody, L77 (available from Becton Dickinson), was added at 5 Φg/mL to prevent syncytia formation. Syncytia formation is thought to be prevented by blocking the interaction between gp120 expressed on the surface of an infected cell and CD4 on the surface of an uninfected cell. […] At 10-12 days after infection, CD4^+, p24^− cell population representing uninfected cells were sorted. Genomic DNA from the CD4^+, p24^− cells was purified and used for PCR amplification of inserts with the vector-derived primers. The amplified mixture was digested with EcoRI and BamHI and cloned back into the retroviral vector. The selection was repeated for additional rounds.\nThe selection of GSEs from HeLa cell library using productive infection of CEM-ss cells isolated […] additional nucleic acid molecules which have substantial sequence identity with other cellular genes.\nThe selection of GSEs from a HeLa cell library using productive infection of CEM-ss cells isolated 21 additional nucleic acid molecules which have substantial sequence identity with other cellular genes. […] The complement of SEQ ID NO:25 is represented by SEQ ID NO:26. […] The complement of SEQ ID NO:27 is represented by SEQ ID NO:28. […] The complement of SEQ ID NO:29 is represented by SEQ ID NO:30. […] The complement of SEQ ID NO:31 is represented by SEQ ID NO:32. […] The complement of SEQ ID NO:33 is represented by SEQ ID NO:34. […] The complement of SEQ ID NO:35 is represented by SEQ ID NO:36. […] The complement of SEQ ID NO:37 is represented by SEQ ID NO:38. […] The complement of SEQ ID NO:39 is represented by SEQ ID NO:40. […] The complement of SEQ ID NO:41 is represented by SEQ ID NO:42. […] The complement of SEQ ID NO:43 is represented by SEQ ID NO:44. […] The complement of SEQ ID NO:45 is represented by SEQ ID NO:46. […] The complement of SEQ ID NO:47 is represented by SEQ ID NO:48. […] The complement of SEQ ID NO:49 is represented by SEQ ID NO:50. […] The complement of SEQ ID NO:51 is represented by SEQ ID NO:52. […] The complement of SEQ ID NO:53 is represented by SEQ ID NO:54. […] The complement of SEQ ID NO:55 is represented by SEQ ID NO:56. […] The complement of SEQ ID NO:57 is represented by SEQ ID NO:58. […] The complement of SEQ ID NO:59 is represented by SEQ ID NO:60. […] The complement of SEQ ID NO:61 is represented by SEQ ID NO:62. […] The complement of SEQ ID NO:77 is represented by SEQ ID NO:78. […] The complement of SEQ ID NO:87 is represented by SEQ ID NO:88. […] The complement of SEQ ID NO:99 is represented by SEQ ID NO:100. […] The complement of SEQ ID NO:101 is represented by SEQ ID NO:102. […] The complement of SEQ ID NO:103 is represented by SEQ ID NO:104. […] The complement of SEQ ID NO:105 is represented by SEQ ID NO: 106. […] The complement of SEQ ID NO:107 is represented by SEQ ID NO:108. […] The complement of SEQ ID NO:109 is represented by SEQ ID NO:110. […] The complement of SEQ ID NO:111 is represented by SEQ ID NO:112. […] The complement of SEQ ID NO:113 is represented by SEQ ID NO:114. […] The complement of SEQ ID NO:115 is represented by SEQ ID NO:116. […] The complement of SEQ ID NO:117 is represented by SEQ ID NO:118.", "values": [{"molecule": "CF-321: GSE, SEQ ID NO:29, sense; rat guanine nucleotide releasing protein gene (sense AGTTCCTTTTACTTTTTAATCTTTCCTTAAAGCACGCCTGTGTTGGGCTAACGA; listed as Homo sapiens)", "HIV-suppressive activity of the GSE and active orientation": "interferes with HIV replication in the sense orientation"}, {"molecule": "CF-332: GSE, SEQ ID NO:33, antisense; lymphocyte-specific protein 1 gene (antisense AACACCCATAGTAGGCCTAAAAGCAGCCACCAATTAAGAAAGC; listed as Homo sapiens)", "HIV-suppressive activity of the GSE and active orientation": "interferes with HIV replication as an antisense molecule"}, {"molecule": "CF-528: GSE, SEQ ID NO:43, sense; GTP binding protein gene (sense AGTGCTTTAACGATGTCACAGCTATCATTTACGTCGCAGCCTGCAGTAGCTACAACATG; chemistry not fully specified; listed as Homo sapiens)", "HIV-suppressive activity of the GSE and active orientation": "interferes with HIV infection in the sense orientation"}, {"molecule": "CF-537: GSE, SEQ ID NO:25, sense; human bone morphogenic protein-1 gene (sense GGTCCACCATGGCCCTGCTGCACTCCGGCCGCGTCCTCCCCGGGATCGCCGCCGCCT; chemistry not fully specified; listed as Homo sapiens)", "HIV-suppressive activity of the GSE and active orientation": "interferes with the HIV life cycles in the sense orientation"}, {"molecule": "B1", "HIV-suppressive activity of the GSE and active orientation": "selected in CEM-ss cells"}, {"molecule": "B2", "HIV-suppressive activity of the GSE and active orientation": "suppresses HIV infection as an antisense molecule"}, {"molecule": "B3", "HIV-suppressive activity of the GSE and active orientation": "suppresses HIV infection as an antisense molecule"}, {"molecule": "B4", "HIV-suppressive activity of the GSE and active orientation": "suppresses HIV infection as a sense molecule"}, {"molecule": "B5", "HIV-suppressive activity of the GSE and active orientation": "suppresses HIV infection as a sense molecule"}, {"molecule": "B6", "HIV-suppressive activity of the GSE and active orientation": "suppresses HIV infection as an antisense molecule"}, {"molecule": "B7", "HIV-suppressive activity of the GSE and active orientation": "suppresses HIV infection as an antisense molecule"}, {"molecule": "B8", "HIV-suppressive activity of the GSE and active orientation": "suppresses HIV infection as a sense molecule"}, {"molecule": "B9", "HIV-suppressive activity of the GSE and active orientation": "interferes with HIV replication as an antisense molecule"}, {"molecule": "B10", "HIV-suppressive activity of the GSE and active orientation": "suppresses HIV infection as a sense molecule"}, {"molecule": "B11", "HIV-suppressive activity of the GSE and active orientation": "interferes with HIV replication as an antisense molecule"}, {"molecule": "B12", "HIV-suppressive activity of the GSE and active orientation": "interferes with HIV replication as an antisense molecule"}, {"molecule": "B13", "HIV-suppressive activity of the GSE and active orientation": "suppresses HIV infection as a sense molecule"}, {"molecule": "B14", "HIV-suppressive activity of the GSE and active orientation": "suppresses HIV infection as an antisense molecule"}]}]}
